Holding throughout (test): EMSA
For one series, the system named is E2F.
In series [1] the target is NF-kB p65/p50 heterodimer (Homo sapiens) (UniProt Q04206+P19838). Particulars: 50% competition not reached; same for p50/p50.
In series [2] the target is T1, NF-kB p50/p50 homodimer (Homo sapiens) (UniProt P19838).
T1 sequence: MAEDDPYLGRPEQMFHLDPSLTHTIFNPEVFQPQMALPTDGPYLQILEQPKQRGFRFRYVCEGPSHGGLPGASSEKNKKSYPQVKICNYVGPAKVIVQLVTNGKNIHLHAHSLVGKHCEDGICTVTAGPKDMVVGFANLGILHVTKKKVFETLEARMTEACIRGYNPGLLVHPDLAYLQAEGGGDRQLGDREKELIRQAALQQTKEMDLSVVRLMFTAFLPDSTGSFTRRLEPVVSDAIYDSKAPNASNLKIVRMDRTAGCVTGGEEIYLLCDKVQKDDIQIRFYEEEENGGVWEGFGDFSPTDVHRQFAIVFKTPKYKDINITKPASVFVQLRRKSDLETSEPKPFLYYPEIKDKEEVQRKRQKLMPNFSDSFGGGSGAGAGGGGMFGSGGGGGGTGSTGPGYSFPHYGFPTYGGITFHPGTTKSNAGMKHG
Particulars: score 100 = less than 50% competition at any ratio tested.

Sequence of NF-kB p65/p50 heterodimer (Homo sapiens) (Q04206 whole entry, one chain of several): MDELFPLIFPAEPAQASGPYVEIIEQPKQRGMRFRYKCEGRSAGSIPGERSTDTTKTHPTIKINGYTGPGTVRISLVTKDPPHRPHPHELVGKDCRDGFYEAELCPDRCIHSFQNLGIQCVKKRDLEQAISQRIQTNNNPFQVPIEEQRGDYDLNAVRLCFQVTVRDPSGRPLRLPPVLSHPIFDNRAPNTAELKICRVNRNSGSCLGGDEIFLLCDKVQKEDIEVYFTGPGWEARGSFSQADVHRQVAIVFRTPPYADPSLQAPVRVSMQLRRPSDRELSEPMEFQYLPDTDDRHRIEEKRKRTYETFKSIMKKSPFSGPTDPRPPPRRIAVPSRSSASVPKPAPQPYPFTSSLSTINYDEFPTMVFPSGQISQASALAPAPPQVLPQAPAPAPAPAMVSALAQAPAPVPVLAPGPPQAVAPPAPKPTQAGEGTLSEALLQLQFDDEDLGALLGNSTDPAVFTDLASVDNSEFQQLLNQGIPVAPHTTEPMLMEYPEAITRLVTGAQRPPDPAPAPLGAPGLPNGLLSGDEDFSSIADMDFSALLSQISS

“CTAGATTTCCCGCG (double strand) [E2F reference decoy]”: the binding signal (% competition at 10-fold excess) in the series with E2F (40% at 40-fold excess) came out at 7.
In the series with E2F (90% at 40-fold excess), “CTAGATTTCCCGCGGATC (double strand) [E2F novel decoy]” gave a binding signal (% competition at 10-fold excess) greater than 60.
“AGTTGAGACTTTCGCAGGC (double strand) [decoy 159 G-Z]”: in series [1], the IC50 is 100 score. The IC50 (fold molar excess) in series [2] is greater than 100.

The values above are taken from patent US20060069055.
